The labels stand for the following.
B1: OphMA V404T, full-length, His-tagged (enzyme)
chain: METSTQTKAGSLTIVGTGIESIGQMTLQALSYIEAAAKVFYCVIDPATEAFILTKNKNCVDLYQYYDNGKSRLNTYTQMSELMVREVRKGLDVVGVFYGHPGVFVNPSHRALAIAKSEGYRARMLPGVSAEDCLFADLCIDPSNPGCLTYEASDFLIRDRPVSIHSHLVLFQVGCVGIADFNFTGFDNNKFGVLVDRLEQEYGAEHPVVHYIAAMMPHQDPVTDKYTVAQLREPEIAKRVGGVSTFYIPPKARKASNLDIIRRLELLPAGQVPDKKARIYPANQWEPDVPEVEPYRPSDQAAIAQLADHAPPEQYQPLATSKAMSDVMTKLALDPKALADYKADHRAFAQSVPDLTPQERAALELGDSWAIRCAMKNMPSSLLDAARESGEEASQNGFPWVIVTGVIGVIGSVMSTE
modifications: backbone N-methylation: 10-fold methylated species most abundant
B2: OphMA V403F, full-length, His-tagged (enzyme)
chain: B1 chain with V403F, T404V
modifications: backbone N-methylation: comparably abundant monomethylated, dimethylated, trimethylated and tetramethylated species
B3: OphMA I407T, full-length, His-tagged (enzyme)
chain: B1 chain with T404V, I407T
modifications: backbone N-methylation: 9-fold methylated species most abundant
B4: OphMA I407F, full-length, His-tagged (enzyme)
chain: B1 chain with T404V, I407F
modifications: backbone N-methylation: mainly a tetramethylated species with some pentamethylated species
B5: OphMA V404F, full-length, His-tagged (enzyme)
chain: B1 chain with T404F
modifications: backbone N-methylation: mainly monomethylated
B6: OphMA V406F, full-length, His-tagged (enzyme)
chain: B1 chain with T404V, V406F
modifications: backbone N-methylation: a tetramethylated species and, to a lesser extent, a trimethylated species
B7: OphMA V406T, full-length, His-tagged (enzyme)
chain: B1 chain with T404V, V406T
modifications: backbone N-methylation: 3-fold methylated species most abundant
B8: OphMAΔC6-V404F (crystallised with SAH) (enzyme)
chain: METSTQTKAGSLTIVGTGIESIGQMTLQALSYIEAAAKVFYCVIDPATEAFILTKNKNCVDLYQYYDNGKSRLNTYTQMSELMVREVRKGLDVVGVFYGHPGVFVNPSHRALAIAKSEGYRARMLPGVSAEDCLFADLCIDPSNPGCLTYEASDFLIRDRPVSIHSHLVLFQVGCVGIADFNFTGFDNNKFGVLVDRLEQEYGAEHPVVHYIAAMMPHQDPVTDKYTVAQLREPEIAKRVGGVSTFYIPPKARKASNLDIIRRLELLPAGQVPDKKARIYPANQWEPDVPEVEPYRPSDQAAIAQLADHAPPEQYQPLATSKAMSDVMTKLALDPKALADYKADHRAFAQSVPDLTPQERAALELGDSWAIRCAMKNMPSSLLDAARESGEEASQNGFPWVIVFGVIGVIG
modifications: backbone N-methyl at Val401 and Val403 (in the crystal structure)

Changes are numbered by the printed parent chain. In names and notes the source's numbering stands.

A word on the stoichiometry N: it is a count of units in the complex or per binding partner.

The first series concerns the molecule itself. As to the kind of experiment: SEC; Superdex-200 Increase column, 25 mM Tris-HCl (pH 8.0), 10% (v/v) glycerol, 100 mM NaCl; retention time of mutants compared with wild type. In general terms: Size exclusion chromatography separates by hydrodynamic size, large species first.
Take B1: the “stoichiometry N” value is 2. Take B2: the “stoichiometry N” value came to 2.

For the protein B3, the “stoichiometry N” value came out at 2. Same read-out and setting: the same measure for B4: 2; for B5: 2; for B6: 2. Same read-out and setting: the same measure for B7: 2.

A further series deals with the molecule itself. As to the kind of experiment: crystal structure; hanging drop, 16 °C; protein (30-50 mg/mL) preincubated with 3 mM SAM; 0.3-0.4 M KSCN, 1.8-2.4 M sodium malonate, 0.1 M bicine pH 8.5-9.3; SAH bound.
With B8, the binding result is on record as “binds”.

Values taken from paper PMC7372559 (ACS Chemical Biology, 2020).
